These results are taken from the nanobody polyreactivity screen of Harvey et al. (2022).

This series in a line: yeast display, Sf9 membrane polyspecificity reagent, FACS + sequencing; frameworks hold sequencing errors. The gist of the method: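 Sorting gates, low and high (top ~1%), were placed on anti-HA fluorescence to track expression and on streptavidin fluorescence to track reagent binding. A clone's polyreactivity label is taken from the gate it came out of. The reagent was 10% biotinylated, detergent-solubilized Sf9 membrane, applied for 1 hour at 4 °C to galactose-induced yeast display cells.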
For “EEELVESGGGLVQAGGSLRLSCAASGRTFVYNAMGWYRQAPWKERELVAAITSGDSTYYADSVKGRFTISRDNAKNTVYLQMNSLKPEDTAVYYCATDYSGIFYWYDYWGQGTQVTVSS”, the “polyreactivity (PSR sort gate)” value was “low polyreactivity”.

Regarding “EEELVESGGGLVQAGGSLRLSCAASGSIFYYNAMGWYRQAPGKERELVAAISRGGTTNYADSVKGRFTISRDNAKNTVYLQMNSLKPEDTAVYYCAAKAYDYYGPVYYWGQGTQVTVSS”, the “polyreactivity (PSR sort gate)” value is “high polyreactivity”.

As for “EEELVESGGGLVQAGGSLRLTCAASGFIFAYNAMGWYRQAPGKEREFVAAISRSGGSTYYADSVKGRFTISRDNAKNTVYLQMNSLKPEDTAVYYCAARRSVGGYGYWGQGTQVTVSS”, the “polyreactivity (PSR sort gate)” value is “high polyreactivity”.

On to “EEELVESGGGLVQAGGSSLRLSCAASGFIFVSNAMGWYRQAPGKERELVASIRWSDGSTFYADSVKGRFTISRDNAKNTVYLQMNSLKPEDTAVYYCNAVYEHRRVGWVTIDYGYWGQGTQVTVSS”, for which the “polyreactivity (PSR sort gate)” value is recorded as “low polyreactivity”.

In the case of “EVHLLESGGGLVQAGGSLRLSSAASGFTFACNAMGWYRQAPGKERELVAALTWGDNSTYYADSVKGRFTISRDNAKNTVYLQMNSLKQEDTAVYYCGARVTHWYYLFGYDYWGQGTQVTVSS”, the “polyreactivity (PSR sort gate)” value is reported as “low polyreactivity”.

“EVQLVESGGGLVQAGGSLRLSCAASGFFYPNNAMGWYRQAPGKERELVARISYGGGDTHYADSVKGRFTISRDNAKNTVYLQMNSLKPEDTAVYYCAVKDGQDDYWGQGTQVTVSS”: the “polyreactivity (PSR sort gate)” value is on record as “low polyreactivity”.

On to “EVQLVESGGGLVQAGGSLRLSCAASGRIFYTNTMGWYRPAPGKERELVATGSTYYADSVKGRFTISRDNAKNTVYLQMDSLKPEDTAVYYCAKRGDFLTKRYESGSAASDYLGQGTQVTVSS”, for which the “polyreactivity (PSR sort gate)” value is listed as “low polyreactivity”.

With “EVQLVESGGGLVQAGGSLRLSCAASGRTIGFNGMAWYRQAPGKERELFAAITRSGGNTYADSVKGRFTISRDNAKNTVYLQMNSLNPEDSAVYYCATTYVGETLTGPGDYWGQGTQVTVSS”, the “polyreactivity (PSR sort gate)” value was “low polyreactivity”.

With “EVQLVESGGGLVQPGGILRVSCAASGYIYSRYRKGWYRQAPGKRREFVAAISGGSSTNYADSVKGRFTISRDNSKKTVYLQMNSLRAEDTAVYYCADSKIDSDPRVYWGQGYQVTVSS”, the “polyreactivity (PSR sort gate)” value is “low polyreactivity”.

As for “EVQLVESGGGLVQTGGSLRLSCAASGYIYSRYRMGWYRQAPGKGREIVAAISGGSSTNYADSVKGRFTISRDNSNNTVYLQMNSLRAEDTAVYYCAAYKIDSDTRVYWGQGTQVTVSS”, the “polyreactivity (PSR sort gate)” value is recorded as “low polyreactivity”.

As to “EVQLVESGGGVDQAVGSLRLSCAASGSIFLFYARGWYRQARGKEMELVARISFRSTSTYYADSVKGRFTISLDNAKYTVSLQMNSLKPEDTAVYYCATRTWYGYLYDYWGQGTQVTVSS”, the “polyreactivity (PSR sort gate)” value was “high polyreactivity”.

For “EVQLVESGVGLVQAGGSLRLSCAASASIFLSYAMGCYRQAPGKVRELVDAISRRGGSTYYADSVKGRFTISRDFAKNTVYLQMNSLKPEDTAVYYCAADLTGPYDYWGQGTQVTVSS”, the “polyreactivity (PSR sort gate)” value is on record as “high polyreactivity”.

With “EVQRVESGGGLVQAGCSLRLSCAASGINFSIYAMGWYRQAPGKERELVADITYSGGRTYYADSVKGRFTISRDNAKNTVYLQLYSLKPEDTAVYYCAAVGYGDYYWGQGTQVTVSS”, the “polyreactivity (PSR sort gate)” value is recorded as “high polyreactivity”.

With “HDQLVESGGGLLQAGGSLRLSCAASGITLYRYVMGWYRQAPGKERELVAYIAGRGTSTYYSDSVKGRFTISRDHAKNTVYLQMNSLKPEDTAVYFCNAEYTKTGALVIPYTYYYAEDYWGQGTQVTVSS”, the “polyreactivity (PSR sort gate)” value is on record as “low polyreactivity”.

Consider “HDQLVESGGGLVQAGGSLRLSCAASGFTFLDYAMGWSRKAPGKERELVASISSSGGSTRYADSVKGRFTISRDNAKNTVYLQMKSLKPQDTAVYYCNAQIAEVPNDYWGQGTPVTVSS”, for which the “polyreactivity (PSR sort gate)” value was “low polyreactivity”.

“HDQLVETGGGLVQAGGSLRLSCAASGFTFRAYAMGWYRQAPGKEREFVAAISRRGGSTSYADSVKGRFTISRDNAKNTVYLQMNSLKPEDTAVYYCAATYQILTTSAHDSWGQGTQVTVSS”: the “polyreactivity (PSR sort gate)” value was “high polyreactivity”.

Take “HDQRVESGGGLVQAGGSLRLSCAASGITFASYAMGWYRQAPGKDRELVAAISWGGSRTYYADSVKGRFTISRDTAKISVYLQMNSLKPEDTAVYYCNAHTRYGPDYSYYYWGQGTQVTVSS”: the “polyreactivity (PSR sort gate)” value is listed as “high polyreactivity”.

Regarding “HGQLVESAAGLVQAGGSLRLSGAASGLIFYDNMGWYRQAPAKDRELVAAISSSGGSTSYADSVKGRFTISRDNAKNTFYLQMNSLKPEDTAVYYCAADSYPAYLGFVGFDYWGLGTQVTVSS”, the “polyreactivity (PSR sort gate)” value is “low polyreactivity”.

In the case of “HGQLVESGGGLVQAGGSLRLSCAASGSHLSNYAMGWYREAPGKERELVAAISLSVGSTYYADSVKGRFTISRDNAKNTVYLQMNSLKPEDTAVYYCAADDFYSGPFRGDYWGQGTQVTVSS”, the “polyreactivity (PSR sort gate)” value is “low polyreactivity”.

For the sequence “HLHLPERVGGLVHAGGSLRLSSAASGYISWAGYMGWYRQPPGKERELVATISYGTSTSYADSVKGRFTISRDNAKNSVYLQMNSLKPEDSAVYYCNADWVFTWYDYPNDKYDYWGQGTQVTVSS”, the “polyreactivity (PSR sort gate)” value was “low polyreactivity”.

Turning to “HVKLVESGGGLVQAGGCLRLSCAASGSNFFHNAMGWYRQAPGKERELVATISWRSASTYYADSVKGRFTISRDNAKKTVYLQMNSLKPEDTAVYYCAAKLHYRQYYYRYGYDYWGQGTQVTVSS”, the “polyreactivity (PSR sort gate)” value is “high polyreactivity”.

Turning to “HVPLVESGGGLVQAGGSLRLSCAASGFTFRANGMGWYRQAPGKERELVATIPSGGTTNYADSVKGRFTISRDNAKKTVYLQMNSLKPEDNAVYDCAASLGANGFQGRMYYWGQGTQVTVSS”, the “polyreactivity (PSR sort gate)” value is recorded as “low polyreactivity”.

In the case of “HVQHVESGGGLVQAGGSLRLSCAASGLIFGVNAMGWYRQAPGKERELVATITSGTSTYYADSVKGRFTISRDNAKNTVYLQMNSLKPEDNAVSYCAVRNGDSWYYYWGQGTQVTVSS”, the “polyreactivity (PSR sort gate)” value is listed as “low polyreactivity”.

As to “HVQHVESGGGLVQAGGSLRVSCAASGSTFYYNAMGWYRQAPGKERELVARISRSGASTYYADSVKGRFTISRDIAKNSVYLQMNSLKPEDTAVYYCATRNLGHERWYYYWGQGTQVTVSS”, the “polyreactivity (PSR sort gate)” value was “high polyreactivity”.

With “HVQLEESGGGLVQAGGSLRLSFAASGSIRKYYAMGSYIQAPAKERELDAAISGSGSTTYYADSVKGRFTISRDNAKNTVYLELNSLKPEDTAVYYCAAVYAFGNRYAYGSDSWGQGTQVTVSS”, the “polyreactivity (PSR sort gate)” value is on record as “low polyreactivity”.

For the sequence “HVQLEESGVGLVQAGGSLRVSCAASGSTFGYYRMGGYRQAPGKERELVAAISWRGGSTYYADSVKGRFTISRDNAMNTVYCQMNSLKPEDTAVYYCAAPVGNYGSIDYWGQVTQVTVSS”, the “polyreactivity (PSR sort gate)” value is “low polyreactivity”.

“HVQLQESGGGLVQAGGSLRLSCAASGNISYSRNMGWYRQAPGKERELVAAIDRGAITYYADSVKGRFTISRDNATNTVYLQIYSLKPEDTAVYYCAAEYHDRWDHRYWGQGTQVTVSS”: the “polyreactivity (PSR sort gate)” value was “high polyreactivity”.

Take “HVQLQESGGGLVQAGGSLRLSCAASGSIFQATYMGWYRQAPGKEREFVASITYGSITNYADSVKGRFTIGRDNPKDTLYLQMNSLKPEDTAVYYCAVDRHYIPAFHYWGQGTQVTVSS”: the “polyreactivity (PSR sort gate)” value is recorded as “low polyreactivity”.

On to “HVQLQESGGGLVQAGGSLRLSCAASGSISRNYDMGWYRQAPGKEREFVAGISGGAITYYADSVKGRFTISRDNAKNTVYLQMNSLKPEDTAVYYCAADTGVYQYHSYWGQGTQVTVSS”, for which the “polyreactivity (PSR sort gate)” value was “low polyreactivity”.

In the case of “HVQLVESGAGLVQAGGSLRLSCAASGSIFGFYAMGWYRQAPGKERELVAAISSSGDSTYADSVKGRFTISRDNAKNTVYLQMNSLKPEDTAVYYCAADEDSRNWGQGTQVTVSS”, the “polyreactivity (PSR sort gate)” value is recorded as “high polyreactivity”.

On to “HVQLVESGGGLFQAGGSLRLICAASGSTFGFYAMGWYRQAPGKERELVAAISRRTGSTYYADSVKGRFTISRDNAKNTVYLQMNSLKPEDTAVYYCNTDQSQKTVGYDYWGQGTQVTVSS”, for which the “polyreactivity (PSR sort gate)” value is listed as “high polyreactivity”.

Take “HVQLVESGGGLVQAGASLRLSCAASGRTFGRYAMGWSRQAPGKERELVAAIRSGGSTYYADSVKGRFTISRDNAKNTVYLQMNSLNPEDPAVYYCAADIARHLTGFAYDRLDYCGQGTQVTVSS”: the “polyreactivity (PSR sort gate)” value is given as “low polyreactivity”.

Consider “HVQLVESGGGLVQAGGSLRLICAASGGTFAGYSMGWYRQAPGKDRELVAAITYRSSTTYYADSVKGRFTISRDNAKNTVYLQMNSLKPEDTAVYYCAARTRGTGRNLDYWGQGTQVNVSS”, for which the “polyreactivity (PSR sort gate)” value is listed as “high polyreactivity”.

Regarding “HVQLVESGGGLVQAGGSLRLRCAASGFTIRSYVMGWYRQAPGKERELVAAIRRSGGSTYYADSVKGRFTISRDNAKNTVYLQMNSLKPEDTAVYYCNTVSGYGQPRGDYWGQGTQVTVSS”, the “polyreactivity (PSR sort gate)” value is listed as “high polyreactivity”.

Consider “HVQLVESGGGLVQAGGSLRLSCAASGFTFPANAMGWYRQAPGKERELVAAISSSGGTYYADSVMGRFTISRDNAKNTVYLQMTSLKQEDTAVYYCAAYRFKYYYWGQGTQVSVSS”, for which the “polyreactivity (PSR sort gate)” value is on record as “high polyreactivity”.

As to “HVQLVESGGGLVQAGGSLRLSCAASGGIFVYYAMGWYRQAPGKVRELVAAISRSAASTYYADSVKGRFTISRDNAKNTVYLQMNSLKPEDTADYYCAAGQLTDKGGGDSWGQGTQVTVSS”, the “polyreactivity (PSR sort gate)” value is reported as “low polyreactivity”.

In the case of “HVQLVESGGGLVQAGGSLRLSCAASGIIFQRNAMGWYRQAPGKERELVAPISYSDGSTYYADSVKGRFTISRDNAKNTVYLQMNSLKPEDTAVYYCAARRFGRLALYFRFDYWGQGTQVTVSS”, the “polyreactivity (PSR sort gate)” value was “low polyreactivity”.

For “HVQLVESGGGLVQAGGSLRLSCAASGITFYDNVMGWYRQAAGKERELVAAITDSGGSTYYADSVKGRFTISRDNEKNTDYLQMNSLNPEDTAVYYCNAEVNAHWWWYIEDYWGQGTQVTVSS”, the “polyreactivity (PSR sort gate)” value is “low polyreactivity”.

Consider “HVQLVESGGGLVQAGGSLRLSCAASGPTFVTNAKGWYRQAPGKERELVAAISRSGGHTYYADSVKGRFTISRDIAKNTVYLQMNSLKPEDTAVYYCAKNRGPRTLYDYWGQGTQVTVSS”, for which the “polyreactivity (PSR sort gate)” value was “high polyreactivity”.

On to “HVQLVESGGGLVQAGGSLRLSCAASGRIFASYPMGWYRPAPGNERELVAAISLSGGSTYYADSVKGRFTISRDNAKNTVYLQMNSLKPEDTAVYYCAAKNYRRYRDYYWGQGTQVTVSS”, for which the “polyreactivity (PSR sort gate)” value was “high polyreactivity”.

As to “HVQLVESGGGLVQAGGSLRLSCAASGRIFRYAMAWYRQAPGNETELVAAISSSGGGTYYADSVKGRFTISRDNAKNTVNLQMNSLKREDTAVYYCIAEYGWRFDYWGQGTQVTVSS”, the “polyreactivity (PSR sort gate)” value is recorded as “high polyreactivity”.
